Reference: the supplement of paper PMC7877785
± gives the uncertainty stated by the source.

Assay: self-splicing fitness, log relative to wild type (ln ratio); higher = more splicing; Tetrahymena group I intron in knt gene, E. coli kanamycin selection, DiMSum; sequences stand for … in CUCUCU…GGAGGGAAAAGUUAUCAGGCAUGCACCUGGUAGCUAGUCUUUAAACCAAUAGAUUGCAUCGGUUUAAAAGGCAAGACCGUCAAAUUGCGGGAAAGGGGUCAACAGCCGUUCAGUACCAAGUCUCAGGGGAAACUUUGAGAUGGCCUUGCAAAGGGUAUGGUAAUAAGCUGACGGACAUGGUCCUAACCACGCAGCCAAGUCCUAAGUCAACAGAUCUUCUGUUGAUAUGGAUGCAGUUCACAGACUAAAUGUCGGUCGGGGAAGAUGUAUUCUUCUCAUAAGAUAUAGUCGGACCUCUCCUUAAUGGGAGCUAGCGGAUGAAGUGAUGCAACACUGGAGCCGCUGGGAACUAAUUUGUAUGCGAAAGUAUAUUGAUUAGUUUUGGAGUACUCGUGGUCG
Procedure, shortened: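 Six replicate transformations of E. coli BL21(DE3) with a pET-22b(+) library were grown overnight at 37°C or 30°C. The library randomised all eight P1ex-region intron nucleotides, the intron lying in the knt kanamycin-resistance gene, and plates were LB agar with or without 25 μg/mL kanamycin plus 100 μg/mL carbenicillin, 50 μM IPTG and 0.2% rhamnose. Pooled colonies were amplicon-sequenced on an Illumina HiSeq 2500, and fitness is the DiMSum error-weighted combination of wild-type-normalised replicate fold changes, kanamycin versus none.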

Row | Sequence | self-splicing fitness (ln) (30 °C) | self-splicing fitness (ln) (37 °C)
1 | AGCAAGCAAUAUUACGAUCC | -1.8 ± 0.18 | 1.31 ± 0.25
2 | CGGAAGCAAUAUUACGGGAG | -2.37 ± 0.1 | -2.02 ± 0.17
3 | AACUAGCAAUAUUACGUACC | -1.14 ± 0.1 | -0.0487 ± 0.14
4 | CUUUAGCAAUAUUACGGUUU | -2.79 ± 0.21 | -2.71 ± 0.24
5 | CUCGAGCAAUAUUACGGAGG | -2.97 ± 0.1 | -1.46 ± 0.097
6 | AGAGAGCAAUAUUACGUGUG | -3.84 ± 0.16 | -3.07 ± 0.24
7 | GGACAGCAAUAUUACGCGUG | -1.17 ± 0.065 | -0.234 ± 0.074
8 | UCGAAGCAAUAUUACGAAGC | – | -1.84 ± 0.47
9 | UUCCAGCAAUAUUACGUAUC | -1.29 ± 0.15 | -2.83 ± 0.34
10 | CGACAGCAAUAUUACGCGAG | -1.5 ± 0.16 | -2.32 ± 0.21
11 | AAGCAGCAAUAUUACGCAAC | -2.62 ± 0.12 | -1.49 ± 0.13
12 | UCCUAGCAAUAUUACGGUAG | -3.32 ± 0.32 | -2.28 ± 0.29
13 | UCGAAGCAAUAUUACGGGGA | -1.17 ± 0.13 | -0.644 ± 0.13
14 | GUGCAGCAAUAUUACGAAAG | -1.58 ± 0.18 | -2.38 ± 0.27
15 | UUAAAGCAAUAUUACGCAUG | -0.545 ± 0.12 | 0.368 ± 0.13
16 | AAGGAGCAAUAUUACGGCCC | -2.25 ± 0.26 | -1.37 ± 0.34
17 | CGCUAGCAAUAUUACGGACC | -2.14 ± 0.31 | –
18 | AAGGAGCAAUAUUACGCUAU | -3.76 ± 0.4 | -1.69 ± 0.26
19 | AACCAGCAAUAUUACGUAAG | -1.28 ± 0.059 | -0.259 ± 0.072
20 | GUCGAGCAAUAUUACGUAAU | -0.411 ± 0.065 | -0.515 ± 0.09
21 | GGCAAGCAAUAUUACGUGUG | -0.694 ± 0.062 | -0.126 ± 0.071
22 | GACAAGCAAUAUUACGAUUG | -1.77 ± 0.078 | -1.54 ± 0.14
23 | AUAGAGCAAUAUUACGGUCG | -1.65 ± 0.18 | -1.12 ± 0.23
24 | AAGAAGCAAUAUUACGGUUG | -2.72 ± 0.092 | -1.32 ± 0.11
25 | AGGAAGCAAUAUUACGGACG | -0.899 ± 0.13 | 0.276 ± 0.14
26 | UUAGAGCAAUAUUACGCGAU | -3.09 ± 0.19 | -2.19 ± 0.24

Row | Sequence | self-splicing fitness (ln) (30 °C) | self-splicing fitness (ln) (37 °C)
27 | AUCUAGCAAUAUUACGAGCC | -2.69 ± 0.45 | –
28 | CUAAAGCAAUAUUACGCCUG | 0.183 ± 0.087 | 0.129 ± 0.099
29 | GAAAAGCAAUAUUACGUUCA | -0.878 ± 0.086 | -0.773 ± 0.082
30 | CUAGAGCAAUAUUACGAACA | -4.05 ± 0.28 | -2.05 ± 0.2
31 | AAUCAGCAAUAUUACGCGCA | -0.8 ± 0.081 | -0.264 ± 0.12
32 | UGAAAGCAAUAUUACGGGAC | -3.12 ± 0.24 | -2.31 ± 0.21
33 | UAAUAGCAAUAUUACGCGGG | -3.18 ± 0.21 | -1.65 ± 0.2
34 | CUACAGCAAUAUUACGGUUU | -3.8 ± 0.16 | -1.31 ± 0.11
35 | AGAUAGCAAUAUUACGGAGA | -1.91 ± 0.18 | -2.76 ± 0.38
36 | AAACAGCAAUAUUACGCGUC | -2.3 ± 0.095 | -1.78 ± 0.12
37 | UUUCAGCAAUAUUACGGGCG | -1.02 ± 0.098 | 0.331 ± 0.14
38 | CGCUAGCAAUAUUACGUAAU | -3.03 ± 0.16 | -1.53 ± 0.14
39 | UCAGAGCAAUAUUACGUUAA | -3.58 ± 0.35 | -2.61 ± 0.34
40 | GGAAAGCAAUAUUACGCGUC | -3.58 ± 0.22 | -2.89 ± 0.23
41 | ACUCAGCAAUAUUACGUUCA | -1.36 ± 0.085 | -0.842 ± 0.11
42 | GGUCAGCAAUAUUACGUAAC | -1.32 ± 0.14 | -0.628 ± 0.16
43 | CUCGAGCAAUAUUACGCGAC | – | -0.0316 ± 0.34
44 | UGUAAGCAAUAUUACGACUU | -1.06 ± 0.09 | 0.0267 ± 0.14
45 | CUUUAGCAAUAUUACGAUGU | -3.36 ± 0.28 | -2.36 ± 0.24
46 | GAUCAGCAAUAUUACGGUCA | -1.6 ± 0.14 | -0.459 ± 0.1
47 | CGCUAGCAAUAUUACGCCAA | – | -0.881 ± 0.32
48 | AAGAAGCAAUAUUACGGAGA | -3.38 ± 0.19 | -2.62 ± 0.2
49 | GUCGAGCAAUAUUACGCUGU | -1.73 ± 0.13 | -1.62 ± 0.2
50 | CGAAAGCAAUAUUACGAGAG | -3.12 ± 0.17 | -2.58 ± 0.18
51 | CUAGAGCAAUAUUACGAAGC | -0.938 ± 0.42 | -1.45 ± 0.43
52 | CUGCAGCAAUAUUACGUCGA | -3.05 ± 0.12 | -1.65 ± 0.1

Row | Sequence | self-splicing fitness (ln) (30 °C) | self-splicing fitness (ln) (37 °C)
53 | GGCUAGCAAUAUUACGCCAA | -2 ± 0.11 | -0.903 ± 0.16
54 | AAUCAGCAAUAUUACGAGGU | -2.3 ± 0.12 | -1.36 ± 0.15
55 | AGGCAGCAAUAUUACGCGUG | -2.48 ± 0.13 | -0.717 ± 0.11
56 | CGAUAGCAAUAUUACGUGUC | -3.67 ± 0.2 | -2.64 ± 0.16
57 | UAUAAGCAAUAUUACGGCAG | -0.0494 ± 0.099 | -0.0977 ± 0.14
58 | UCGCAGCAAUAUUACGGGGA | -1.31 ± 0.12 | -1.11 ± 0.1
59 | CCCGAGCAAUAUUACGGAGA | -3.28 ± 0.14 | -1.36 ± 0.11
60 | UAGAAGCAAUAUUACGGCGG | -0.497 ± 0.099 | 0.388 ± 0.12
61 | GUCUAGCAAUAUUACGCCAU | -2.11 ± 0.26 | -2.04 ± 0.18
62 | CCCCAGCAAUAUUACGGGAA | -2.29 ± 0.096 | -1.64 ± 0.088
63 | GAGGAGCAAUAUUACGAUCG | -2.15 ± 0.22 | -1.2 ± 0.32
64 | UUGAAGCAAUAUUACGCACC | -2.62 ± 0.34 | -1.41 ± 0.4
65 | AAUGAGCAAUAUUACGUAUC | -3.14 ± 0.21 | -1.14 ± 0.17
66 | CACGAGCAAUAUUACGCGGA | -3.61 ± 0.37 | -3.37 ± 0.4
67 | UGUUAGCAAUAUUACGUCCU | -1.31 ± 0.15 | -0.516 ± 0.23
68 | UGAUAGCAAUAUUACGGCAU | -2.68 ± 0.13 | -1.41 ± 0.13
69 | AUAAAGCAAUAUUACGCGGG | -2.55 ± 0.13 | -1.4 ± 0.16
70 | UUUUAGCAAUAUUACGAUUG | -1.52 ± 0.14 | -0.255 ± 0.16
71 | UGGAAGCAAUAUUACGCGGC | -2.11 ± 0.26 | -1.08 ± 0.26
72 | UCCUAGCAAUAUUACGGUGU | -1.71 ± 0.067 | -0.222 ± 0.097
73 | AUGCAGCAAUAUUACGUCGG | -2.43 ± 0.22 | -1.91 ± 0.26
74 | GAGGAGCAAUAUUACGCAAC | -2.75 ± 0.38 | –
75 | AGAAAGCAAUAUUACGAACA | -0.534 ± 0.16 | -0.288 ± 0.16
76 | CUCUAGCAAUAUUACGUGUG | -2.93 ± 0.11 | -2.89 ± 0.14
77 | CCGAAGCAAUAUUACGAAGC | – | -1.59 ± 0.24
78 | GUUUAGCAAUAUUACGGGAC | – | -1.98 ± 0.39
